Patent US20130245102, “NOVEL DNA TEMPLATES FOR SMALL RNA PRODUCTION IN MAMMALIAN CELLS” (Research Foundation of the City University of New York, published 2013)

Experiments:
[1] = tested on: RNA polymerase III (Homo sapiens); details: 90 min IVT from 100 nM coligo; 6 mM MgCl2; abolished by 120 ug/ml alpha-amanitin
[2] = tested on: TS2126 RNA ligase 1 (Bacteriophage TS2126); details: 5' phosphate; splintless circularization, 2.5 mM MnCl2, 50 uM ATP, 60 C, 2 h
[3] = tested on: RNA polymerase III (Homo sapiens); details: HEK293T WCE transcription; mainly single round
[4] = target: RNA polymerase II (UniProt P04050;P08518;P16370;P20433;P20434;P20435;P34087;P20436;P27999;P22139;P38902;P40 …); test: in vitro transcription processivity, 1 uM template, 37 C; details: tags: yeast RNAP II from D. Bushnell and R. Kornberg; circular, stem-loop
Source text: (§1) Chem. Soc. 117, 7818-7819 (1995)) (FIG. 5b, gel region “a”). As a relative measure of transcriptional processivity, we calculated the ratio of the radioactivity incorporated in the rolling circle transcripts (FIG. 5b, gel region “a” in lanes 3, 6, 9) to the sum of all shorter transcripts (gel region “b”). Lower a/b ratios indicate lower processivity. […] Thus, the ability to initiate promoterless transcription on coligo templates appears to have been retained during RNAP evolution, while the processivity needed for RCT appears to have been lost.
(§2) In vitro transcription (IVT). IVT using WCE, uniform labeling with [α-³²P]-UTP and the linear or circular (coligo) templates was performed as follows. A typical 20 μl reaction contained 25 μg total WCE protein, 20 units RNase inhibitor (Promega) 1.25 mM each ATP, CTP, GTP, 0.2 mM UTP, (except FIG. 5b, which contained 1.25 mM each NTP), ˜2 μCi [α-³²P]-UTP, 40 mM Tris-HCl pH 7.9, 6 mM MgCl₂, 10 mM DTT, 2 mM spermidine, 100 μM NaCl); 100 nM template unless otherwise indicated. IVT using E. coli RNA polymerase (USB) was carried out in 40 mM Tris-HCl, pH 8.0, 10 mM MgCl₂, 5 mM DTT, 50 mM KCl, 50 μg/ml BSA), 1 μM coligo template, 1.25 mM NTP, ˜2 μCi [α-³²P]-UTP, 1 unit/μl RNAse inhibitor. […] Images and quantitation were performed using MD ImageQuant software. […]

[5] = target: RNA polymerase (Escherichia coli, UniProt P0A7Z4;P0A8V2;P0A8T7;P0A800 P0A7Z4:1-329,P0A8V2:1-1342,P0A8T7:1-1407,P0A800:2-91); test: in vitro transcription processivity, 10 mM MgCl2, 37 C; details: tags: USB; chain copies: 2,1,1,1; circular, stem-loop
Sequence of RNA polymerase (P0A7Z4 whole entry, chain 1 of 4): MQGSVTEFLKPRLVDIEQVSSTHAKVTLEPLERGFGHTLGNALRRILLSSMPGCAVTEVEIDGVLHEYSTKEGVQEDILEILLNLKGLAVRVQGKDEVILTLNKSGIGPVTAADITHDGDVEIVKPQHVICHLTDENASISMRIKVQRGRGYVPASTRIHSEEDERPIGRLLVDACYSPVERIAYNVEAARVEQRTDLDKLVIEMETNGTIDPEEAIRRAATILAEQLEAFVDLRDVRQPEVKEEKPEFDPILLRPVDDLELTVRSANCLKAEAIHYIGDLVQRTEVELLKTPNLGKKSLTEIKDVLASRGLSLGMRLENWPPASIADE
Sequence of RNA polymerase (P0A8V2 whole entry, chain 2 of 4): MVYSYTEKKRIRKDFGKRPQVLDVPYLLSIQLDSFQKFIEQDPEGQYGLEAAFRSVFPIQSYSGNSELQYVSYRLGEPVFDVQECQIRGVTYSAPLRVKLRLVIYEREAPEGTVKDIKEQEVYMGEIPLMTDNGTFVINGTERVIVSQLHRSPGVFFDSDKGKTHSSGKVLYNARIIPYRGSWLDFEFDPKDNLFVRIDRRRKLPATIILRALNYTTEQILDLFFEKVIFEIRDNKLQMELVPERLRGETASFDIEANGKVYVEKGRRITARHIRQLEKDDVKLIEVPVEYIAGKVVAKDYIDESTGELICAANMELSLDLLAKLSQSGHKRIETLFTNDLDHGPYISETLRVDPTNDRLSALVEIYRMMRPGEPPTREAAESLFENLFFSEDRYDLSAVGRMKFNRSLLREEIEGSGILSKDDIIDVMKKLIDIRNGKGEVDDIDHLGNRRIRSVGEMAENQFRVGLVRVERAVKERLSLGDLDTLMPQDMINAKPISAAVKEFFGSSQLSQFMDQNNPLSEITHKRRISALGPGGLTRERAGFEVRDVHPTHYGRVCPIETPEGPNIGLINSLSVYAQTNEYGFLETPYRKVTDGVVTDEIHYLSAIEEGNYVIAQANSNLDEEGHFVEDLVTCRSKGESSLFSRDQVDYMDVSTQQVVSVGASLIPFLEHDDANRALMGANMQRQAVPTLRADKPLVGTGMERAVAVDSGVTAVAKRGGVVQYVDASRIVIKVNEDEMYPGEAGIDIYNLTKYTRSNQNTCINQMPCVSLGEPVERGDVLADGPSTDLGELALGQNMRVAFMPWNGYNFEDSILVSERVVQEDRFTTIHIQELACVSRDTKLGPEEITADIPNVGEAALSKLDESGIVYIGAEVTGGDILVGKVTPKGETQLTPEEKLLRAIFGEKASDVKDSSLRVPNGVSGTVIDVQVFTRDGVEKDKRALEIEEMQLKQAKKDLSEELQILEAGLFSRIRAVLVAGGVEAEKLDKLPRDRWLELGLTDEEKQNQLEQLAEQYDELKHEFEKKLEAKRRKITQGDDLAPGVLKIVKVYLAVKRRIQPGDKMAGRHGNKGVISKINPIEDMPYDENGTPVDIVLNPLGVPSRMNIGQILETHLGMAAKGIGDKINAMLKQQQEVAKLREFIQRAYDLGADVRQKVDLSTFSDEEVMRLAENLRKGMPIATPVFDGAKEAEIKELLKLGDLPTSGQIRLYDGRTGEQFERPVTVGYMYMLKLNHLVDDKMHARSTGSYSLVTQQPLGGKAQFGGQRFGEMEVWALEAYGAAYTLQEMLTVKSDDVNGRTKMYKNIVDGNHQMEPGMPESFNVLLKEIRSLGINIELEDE
Sequence of RNA polymerase (P0A8T7 whole entry, chain 3 of 4): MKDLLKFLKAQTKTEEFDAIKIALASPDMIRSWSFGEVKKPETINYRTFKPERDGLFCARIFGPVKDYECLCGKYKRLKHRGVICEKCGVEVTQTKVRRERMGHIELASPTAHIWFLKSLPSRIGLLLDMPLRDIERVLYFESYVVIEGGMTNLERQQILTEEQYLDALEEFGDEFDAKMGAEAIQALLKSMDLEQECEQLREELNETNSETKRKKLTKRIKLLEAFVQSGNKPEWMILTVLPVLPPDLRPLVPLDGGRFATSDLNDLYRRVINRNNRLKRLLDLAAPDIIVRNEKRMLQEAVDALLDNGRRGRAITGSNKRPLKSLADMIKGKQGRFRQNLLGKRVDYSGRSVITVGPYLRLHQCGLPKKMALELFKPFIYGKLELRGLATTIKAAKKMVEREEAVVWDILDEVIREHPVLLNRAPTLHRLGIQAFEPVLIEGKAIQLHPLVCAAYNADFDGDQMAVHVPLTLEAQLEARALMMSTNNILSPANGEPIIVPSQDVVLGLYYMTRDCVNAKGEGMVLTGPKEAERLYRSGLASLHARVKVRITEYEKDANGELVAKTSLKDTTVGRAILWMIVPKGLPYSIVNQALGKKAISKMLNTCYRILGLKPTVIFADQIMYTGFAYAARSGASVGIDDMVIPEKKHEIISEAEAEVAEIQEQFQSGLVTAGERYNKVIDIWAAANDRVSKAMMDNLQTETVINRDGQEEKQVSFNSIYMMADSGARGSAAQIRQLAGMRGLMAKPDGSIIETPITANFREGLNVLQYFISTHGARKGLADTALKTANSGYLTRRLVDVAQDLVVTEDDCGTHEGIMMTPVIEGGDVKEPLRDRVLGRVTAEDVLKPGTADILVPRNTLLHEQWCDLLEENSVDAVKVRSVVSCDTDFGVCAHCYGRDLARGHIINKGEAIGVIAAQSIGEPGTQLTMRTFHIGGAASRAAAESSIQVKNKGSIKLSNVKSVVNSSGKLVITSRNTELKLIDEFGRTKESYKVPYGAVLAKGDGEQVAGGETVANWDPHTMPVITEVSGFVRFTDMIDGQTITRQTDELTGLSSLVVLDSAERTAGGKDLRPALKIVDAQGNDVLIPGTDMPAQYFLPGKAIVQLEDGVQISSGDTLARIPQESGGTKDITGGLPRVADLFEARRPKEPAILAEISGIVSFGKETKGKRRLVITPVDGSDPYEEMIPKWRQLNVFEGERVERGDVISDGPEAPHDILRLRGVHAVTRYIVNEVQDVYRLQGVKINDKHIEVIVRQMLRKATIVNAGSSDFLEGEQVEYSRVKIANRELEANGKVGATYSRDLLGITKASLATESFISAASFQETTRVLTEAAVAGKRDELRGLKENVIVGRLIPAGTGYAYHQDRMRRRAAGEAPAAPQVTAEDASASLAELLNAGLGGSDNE
Sequence of RNA polymerase (P0A800 2-91, chain 4 of 4): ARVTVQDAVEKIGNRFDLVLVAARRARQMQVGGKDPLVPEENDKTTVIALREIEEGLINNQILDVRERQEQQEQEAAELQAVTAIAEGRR
Source text: as §1, §2

CTCAGATCTGCCTGCAACTATGCAAAACTAACAGAGGACTGCAAACAAAAACTAGAAGGAAATAGCAGGCCACCATCAGTTTTGCATAGATTTGCACAACGGCAGAGAGCTCCCAGG [coligo 19aTAR (19am)]
activity (nM transcript) [1]: 0.6

CTCAGATCTGCCTGCAACTATGCAAAACTAACAGAGGACTGCAAACAAAAACTAGAAGGAAATAGCAGGCCACCATCAGTTTTGCATAGATTTGCACAACGGCAGAGAGCTCCCAGG [linear 19aTAR]
activity (% cyclization) [2]: 73

TTGCCTAGCAGTAGCTATTTAGTGTGATAATGGCGTTTGATAGTTTAGACACAAACACCATTGTCACACTCCACAGCTCTGCTAAGGAA [coligo 122]
binding signal (RCT/short transcript ratio) [3]: 0.01

B1: coligo 122 (structured_DNA)
DNA: TTGCCTAGCAGTAGCTATTTAGTGTGATAATGGCGTTTGATAGTTTAGACACAAACACCATTGTCACACTCCACAGCTCTGCTAAGGAA
transcriptional processivity (rolling-circle/short transcript ratio) [4]: 0.3 RCT/short transcript ratio
binding signal [5]: 2.3 RCT/short transcript ratio
